Reference: PMC3521694 (PLoS Pathogens, 2012)

B1: Rab22a(1-175):GDP (domain or fragment)
chain: MALRELKVCLLGDTGVGKSSIVWRFVEDSFDPNINPTIGASFMTKTVQYQNELHKFLIWDTAGQERFRALAPMYYRGSAAAIIVYDITKEETFSTLKNWVKELRQHGPPNIVVAIAGNKCDLIDVREVMERDAKDYADSIHAIFVETSAKNAININELFIEISRRIPSTDANLPS
notes: also called wild-type Rab22a(1-175)
B2: Rab5b(1-190):GDP (domain or fragment)
chain: MTSRSTARPNGQPQASKICQFKLVLLGESAVGKSSLVLRFVKGQFHEYQESTIGAAFLTQSVCLDDTTVKFEIWDTAGQERYHSLAPMYYRGAQAAIVVYDITNQETFARAKTWVKELQRQASPSIVIALAGNKADLANKRMVEYEEAQAYADDNSLLFMETSAKTAMNVNDLFLAIAKKLPKSEPQNLG
notes: also called wild-type Rab5b(1-190)

Target: full-length VipD (vacuolar protein sorting inhibitor protein D) (Legionella pneumophila, UniProt Q5ZRP9 1-621)
Experiment: ITC; […]; 25°C; 20 mM Tris-HCl pH 7.5, 100 mM NaCl; iTC200
Conditions: both partners purified

Row | Binder | Kd
1 | B1 | 123 nM
2 | B2 | 3150 nM
